Assay results published in US20200149021, “SYSTEM AND METHOD FOR GENOME EDITING” (INSTITUTE OF ZOOLOGY, CHINESE ACADEMY OF SCIENCES, published 2020).

Experiments:
PrCpf1 = target: T1, PrCpf1 (Pseudobutyrivibrio ruminis); assay: cell_activity; PAM TTTC; (T)TTN; T7EI; settings: tags: HA (2A-eGFP vector)
T1 chain: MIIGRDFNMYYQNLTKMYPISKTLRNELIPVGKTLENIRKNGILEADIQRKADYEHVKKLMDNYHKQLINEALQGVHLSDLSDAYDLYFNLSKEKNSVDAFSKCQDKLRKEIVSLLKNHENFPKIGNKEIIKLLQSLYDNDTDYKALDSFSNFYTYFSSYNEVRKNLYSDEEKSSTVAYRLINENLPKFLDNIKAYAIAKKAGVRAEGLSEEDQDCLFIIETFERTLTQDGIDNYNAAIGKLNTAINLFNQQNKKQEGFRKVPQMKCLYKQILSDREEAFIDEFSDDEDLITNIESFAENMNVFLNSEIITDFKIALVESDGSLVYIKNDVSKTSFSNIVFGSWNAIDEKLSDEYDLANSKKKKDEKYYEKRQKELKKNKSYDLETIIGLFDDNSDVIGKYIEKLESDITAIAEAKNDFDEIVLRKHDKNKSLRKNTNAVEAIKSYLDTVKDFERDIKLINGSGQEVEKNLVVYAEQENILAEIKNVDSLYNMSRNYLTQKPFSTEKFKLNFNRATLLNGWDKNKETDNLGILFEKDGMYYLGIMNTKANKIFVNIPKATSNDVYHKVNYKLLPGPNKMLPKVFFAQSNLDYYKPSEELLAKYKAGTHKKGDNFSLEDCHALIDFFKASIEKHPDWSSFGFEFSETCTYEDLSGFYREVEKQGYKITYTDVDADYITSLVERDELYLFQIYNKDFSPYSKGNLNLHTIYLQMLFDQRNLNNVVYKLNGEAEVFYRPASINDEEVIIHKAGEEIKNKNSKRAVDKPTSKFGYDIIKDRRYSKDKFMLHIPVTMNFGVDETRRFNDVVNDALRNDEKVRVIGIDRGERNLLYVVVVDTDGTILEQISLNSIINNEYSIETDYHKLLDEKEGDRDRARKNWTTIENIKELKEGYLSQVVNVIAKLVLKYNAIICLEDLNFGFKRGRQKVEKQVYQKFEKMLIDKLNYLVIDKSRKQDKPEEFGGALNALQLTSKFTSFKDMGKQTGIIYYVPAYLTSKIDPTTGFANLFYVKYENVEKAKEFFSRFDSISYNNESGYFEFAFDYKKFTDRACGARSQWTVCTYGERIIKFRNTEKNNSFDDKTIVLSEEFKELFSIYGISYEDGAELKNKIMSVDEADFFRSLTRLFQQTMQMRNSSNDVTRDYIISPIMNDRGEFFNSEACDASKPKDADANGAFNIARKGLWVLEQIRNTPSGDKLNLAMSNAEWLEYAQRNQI
Experimental: (§1) GFP-positive cells were sorted by FACS, lysed with Buffer L+ 1/100V Protease K (Biotool) at 55° C. for 30 min, inactivated at 95° C. for 5 min, and directly used for PCR detection. Appropriate primers were designed near the Cpf1 targeting site, and the amplified product was purified using DNA Clean & Concentrator™-5 kit (ZYMO Research). 200 ng of purified PCR product was added into 1 uL of NEBuffer2 (NEB) and diluted to 10 uL with ddH₂O. Then, heterodimers were formed by re-annealing according to the previously reported method (Li, W., et al., Simultaneous generation and germline transmission of multiple gene mutations in rat using CRISPR-Cas systems. Nat Biotechnol, 2013. 31(8): p. 684-6). The reannealed product was added with 0.3 uL of T7EI endnucelease and 1/10 V NEBuffer2 (NEB), and digested at 37° C. for 1 h 30 min. Genotype analysis was performed by 3% TAE-Gel electrophoresis. Indels were calculated according to the method reported in the previous article (Cong, L., et al., Multiplex genome engineering using CRISPR/Cas systems. Science, 2013. 339(6121): p. 819-23).
(§2) The cells were transfected with Cpf1, crRNA31, and crRNA2 plasmids, and it was confirmed by PCR and T7EI analysis that crRNA31 can increase the editing efficiency of five Cpf1s of ArCpf1, BsCpf1, HkCpf1, PrCpf1, and PxCpf1 at the site MeCP2-4 by two folds (FIG. 13B).

PxCpf1 = target: T2, PxCpf1 (Pseudobutyrivibrio xylanivorans); assay: cell_activity; PAM TTTC; (T)TTN; T7EI; settings: tags: HA (2A-eGFP vector)
T2 chain: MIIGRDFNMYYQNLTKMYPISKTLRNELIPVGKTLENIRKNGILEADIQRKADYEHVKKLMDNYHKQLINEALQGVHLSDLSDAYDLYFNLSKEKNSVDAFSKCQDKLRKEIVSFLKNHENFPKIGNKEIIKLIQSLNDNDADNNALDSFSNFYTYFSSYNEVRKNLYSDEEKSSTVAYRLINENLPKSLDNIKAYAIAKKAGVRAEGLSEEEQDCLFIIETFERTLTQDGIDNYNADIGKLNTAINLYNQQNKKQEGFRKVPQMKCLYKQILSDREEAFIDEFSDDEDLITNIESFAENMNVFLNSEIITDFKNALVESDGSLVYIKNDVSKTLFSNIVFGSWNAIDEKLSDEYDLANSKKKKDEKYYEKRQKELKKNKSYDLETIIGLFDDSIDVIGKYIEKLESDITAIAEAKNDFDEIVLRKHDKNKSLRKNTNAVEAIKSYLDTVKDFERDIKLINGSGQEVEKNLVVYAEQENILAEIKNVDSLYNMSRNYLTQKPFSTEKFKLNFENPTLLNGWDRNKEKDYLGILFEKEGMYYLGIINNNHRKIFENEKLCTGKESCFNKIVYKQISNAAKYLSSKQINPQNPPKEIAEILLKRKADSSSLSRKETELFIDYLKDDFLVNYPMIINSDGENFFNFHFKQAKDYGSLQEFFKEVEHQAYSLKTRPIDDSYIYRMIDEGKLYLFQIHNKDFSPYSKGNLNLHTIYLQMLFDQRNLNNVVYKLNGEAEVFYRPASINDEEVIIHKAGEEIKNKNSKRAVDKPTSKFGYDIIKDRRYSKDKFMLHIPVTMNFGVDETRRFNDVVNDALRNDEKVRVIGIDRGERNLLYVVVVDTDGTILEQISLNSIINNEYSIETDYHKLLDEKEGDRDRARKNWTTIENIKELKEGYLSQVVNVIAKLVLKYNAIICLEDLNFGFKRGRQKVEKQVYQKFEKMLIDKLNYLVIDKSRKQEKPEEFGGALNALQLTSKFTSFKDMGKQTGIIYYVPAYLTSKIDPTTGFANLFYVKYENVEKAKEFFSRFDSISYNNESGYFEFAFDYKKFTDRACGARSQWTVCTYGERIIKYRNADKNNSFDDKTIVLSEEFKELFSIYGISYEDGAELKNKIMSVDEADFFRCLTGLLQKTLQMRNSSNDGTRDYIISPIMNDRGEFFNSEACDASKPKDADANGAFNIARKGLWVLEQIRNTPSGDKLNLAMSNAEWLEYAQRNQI
Experimental: as §1, §2

B1: crRNA31 MeCP2 site 4 ; Mouse MeCP2 site 4 (ssRNA ; dsDNA)
RNA: AUUUCUACUAUGGUAGAUGUGUCCAACCUUCAGGCAAGGUG
DNA 1: TTTCGTGTCCAACCTTCAGGCAAGGTG
DNA 2: CACCTTGCCTGAAGGTTGGACACGAAA
- editing efficiency (PrCpf1): ~2 fold vs crRNA2
- editing efficiency (PxCpf1): ~2 fold vs crRNA2
